The values below come from article PMC9753469, “Structure and functional mapping of the KRAB‐KAP1 repressor complex” (The EMBO Journal, 2022).

For the assay, the target named is T1, KAP1 RBCC (wild type), SPR analyte (human (by the printed UniProt entry), UniProt Q13263 50-413).
T1 construct: KAP1 (TRIM28) RBCC motif; probably as in Stoll et al, 2019; also called WT KAP1 RBCC; wild-type KAP1; source: E. coli BL21(DE3)
In words: SPR; Biacore T200, CM5 chip; MBP-KRAB immobilised (about 300 RU ZNF93 WT, 600 RU E35R); KAP1 RBCC flowed, 1:2 dilution series from 40 μM; 20 mM HEPES pH 8.0, 0.5 M NaCl, 0.5 mM TCEP, 20°C; biphasic kinetic model. The conditions noted are these: both partners purified.

As usually defined, the Kd is the free concentration of one partner at which half of the binding sites on the other are occupied at equilibrium, for simple one-to-one binding. Read a low Kd as tighter binding.

T1 sequence (Q13263 50-413): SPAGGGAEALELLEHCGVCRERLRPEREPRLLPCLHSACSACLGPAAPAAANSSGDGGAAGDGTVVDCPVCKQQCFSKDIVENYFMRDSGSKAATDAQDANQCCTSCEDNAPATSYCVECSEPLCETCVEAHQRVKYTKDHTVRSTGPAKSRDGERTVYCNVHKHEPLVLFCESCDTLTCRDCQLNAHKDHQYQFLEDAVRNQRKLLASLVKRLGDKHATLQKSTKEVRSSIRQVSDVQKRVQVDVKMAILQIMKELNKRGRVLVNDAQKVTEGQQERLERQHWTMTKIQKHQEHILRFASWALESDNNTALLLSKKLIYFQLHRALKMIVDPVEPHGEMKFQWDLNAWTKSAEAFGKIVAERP

B1: MBP-KRAB (ZNF93 KRAB E35R) (domain or fragment)
chain: not shown
notes: ZNF93, human, residues 2-71 (KRAB domain), E35R; also called ZNF93 E35R; source: E. coli BL21(DE3); not shown: MBP, N-terminal, kept
On to B1, for which the Kd amounted to 198 nM.

B2: MBP-KRAB (ZNF93 KRAB, wild type) (domain or fragment)
chain: not shown
notes: ZNF93, human, residues 2-71 (KRAB domain); The purification of MBP-KRAB alone is not described; also called ZNF93 WT; source: E. coli BL21(DE3); not shown: MBP, N-terminal, kept
B2 returned a dissociation constant Kd of 7.5 nM.
